B1: AqpZ-ALFA (E. coli aquaporin Z with the ALFA tag grafted onto its C-terminus, flexible linker and Strep-tag II) (other)
chain: MFRKLAAECFGTFWLVFGGCGSAVLAAGFPELGIGFAGVALAFGLTVLTMAFAVGHISGGHFNPAVTIGLWAGGRFPAKEVVGYVIAQVVGGIVAAALLYLIASGKTGFDAAASGFASNGYGEHSPGGYSMLSALVVELVLSAGFLLVIHGATDKFAPAGFAPIAIGLALTLIHLISIPVTNTSVNPARSTAVAIFQGGWALEQLWFFWVVPIVGGIIGGLIYRTLLRASRLEEELRRRLTEPGGGPG
notes: Aquaporin Z (AqpZ), E. coli, UniProt P60844; from the start up to the printed C-terminal residues IYRTLL; the last residues of the natural protein are replaced by the graft; followed by aswshpqfek (Strep-tag II, written as a tag); Tetramer; also called AqpZ-ALFA-St; source: E. coli BL21-A1, purified (octyl glucoside extraction of membranes, StrepTrap, Superdex 200 in C8E4); not shown: Strep-tag …

Tests used:
[1] = target: octameric (AqpZ-ALFA)4(nB)4 complex (E. coli) (UniProt P60844); assay: cryo-EM structure; AqpZ-ALFA incubated with five-fold molar excess of nB in C8E4, complex purified (StrepTrap, Superdex 200), 10 mg/mL, 5-fold molar excess of 18:1 cardiolipin (TOCDL); prepared at room temperature, grid at 5 °C; D4 symmetry, 1.9 Å
[2] = target: the molecule itself; assay: as above

| Molecule | stoichiometry N [1] | stoichiometry N [2] |
| --- | --- | --- |
| octameric (AqpZ-ALFA)4(nB)4 complex (from UniProt P60844 1-227) | 2 | – |
| B1 | – | 4 |
